Substitutions are numbered along the chain they refer to.
B1: Hu67F3G7-8 (antibody, V domains shown)
VH: EVQLVQSGAEVKKPGASVKVSCKASGYIFTDFWVSWVRQAPGQGLEWIGEIYPNSGVSRYNEKFKGRVTMTVDKSISTAYMELSRLRSDDTAVYYCTKYFGYTYWFGYWGQGTLVTVSS
VL: DTVLTQSPSSLSASVGDRVTITCRASKSVSTYMHWYQQKPGKAPKLLIYSASHLESGVPSRFSGSGSGTDFTLTISSLQPEDFATYYCQQSNELPVTFGGGTKVEIK
notes: humanized
B2: Hu67F3G7-18 (antibody, V domains shown)
VH: B1 VH
VL: DTVLTQSPSLSASVGDRVTITCRASKSVSTYMHWYQQKPGKQPKLLIYSASHLESGVPSRFSGSGSGTDFTLTISSLQPEDFATYYCQQSNELPVTFGGGTKVEIK
notes: humanized
B3: Hu67F3G7-15 (antibody, V domains shown)
VH: B1 VH with Q43K
VL: B1 VL with A43Q
notes: humanized
B4: Hu67F3G7-4 (antibody, V domains shown)
VH: B1 VH with T97A, K98R
VL: B1 VL with T2I, V3Q, L4M
notes: humanized
B5: Hu67F3G7-10 (antibody, V domains shown)
VH: B1 VH with Q43K
VL: B1 VL
notes: humanized
B6: Hu67F3G7-1 (antibody, V domains shown)
VH: B1 VH with I28T, I48M, T97A, K98R
VL: B1 VL with T2I, V3Q, L4M
notes: humanized
B7: Hu67F3G7-6 (antibody, V domains shown)
VH: B1 VH with I28T, I48M, T97A, K98R
VL: B1 VL
notes: humanized
B8: Hu67F3G7-9 (antibody, V domains shown)
VH: B1 VH with T97A, K98R
VL: B1 VL
notes: humanized
B9: Hu67F3G7-14 (antibody, V domains shown)
VH: B1 VH with T97A, K98R
VL: B1 VL with A43Q
notes: humanized
B10: Hu67F3G7-11 (antibody, V domains shown)
VH: B1 VH with I28T, I48M, T97A, K98R
VL: B1 VL with A43Q
notes: humanized
B11: Hu67F3G7-12 (antibody, V domains shown)
VH: B1 VH with I28T, I48M
VL: B1 VL with A43Q
notes: humanized
B12: Hu67F3G7-17 (antibody, V domains shown)
VH: B1 VH with I28T, I48M
VL: B2 VL
notes: humanized
B13: Hu67F3G7-13 (antibody, V domains shown)
VH: B1 VH
VL: B1 VL with A43Q
notes: humanized
B14: Hu67F3G7-16 (antibody, V domains shown)
VH: B1 VH with I28T, I48M, T97A, K98R
VL: B2 VL
notes: humanized
B15: Hu89C10H8-1 (antibody, V domains shown)
VH: EVQLVESGGGLVKPGGSLRLSCAASGFTFSNYWMTWVRQAPGKGLEWVASITNTGSSTFYPDSVKGRFTISRDNAKNSLYLQMNSLRAEDTAVYYCARDTTIAPFDYWGQGTMVTVSS
VL: DIQMTQSPSSLSASVGDRVTITCKASQNLNEYLNWYQQKPGKAPKRLIYKTNTLQAGVPSRFSGSGSGTDYTLTISSLQPEDFATYYCSQYNSGNTFGQGTKLEIK
notes: humanized
B16: Hu89C10H8-6 (antibody, V domains shown)
VH: B15 VH with A97T
VL: B15 VL with V58I
notes: humanized
B17: Hu89C10H8-14 (antibody, V domains shown)
VH: B15 VH with A97T
VL: B15 VL with P40L, K42E, V58I, T69I, Y87F
notes: humanized
B18: Hu89C10H8-9 (antibody, V domains shown)
VH: B15 VH
VL: B15 VL with V58I, T69I
notes: humanized
B19: Hu89C10H8-5 (antibody, V domains shown)
VH: B15 VH
VL: B15 VL with V58I
notes: humanized
B20: Hu89C10H8-2 (antibody, V domains shown)
VH: B15 VH with A97T
VL: B15 VL
notes: humanized
B21: Hu89C10H8-16 (antibody, V domains shown)
VH: B15 VH with V37I, N77S, A97T
VL: B15 VL with P40L, K42E, V58I, T69I, Y87F
notes: humanized
B22: Hu89C10H8-3 (antibody, V domains shown)
VH: B15 VH with V37I, A97T
VL: B15 VL
notes: humanized
B23: Hu89C10H8-15 (antibody, V domains shown)
VH: B15 VH with V37I, A97T
VL: B15 VL with P40L, K42E, V58I, T69I, Y87F
notes: humanized
B24: Hu89C10H8-13 (antibody, V domains shown)
VH: B15 VH
VL: B15 VL with P40L, K42E, V58I, T69I, Y87F
notes: humanized
B25: Hu89C10H8-10 (antibody, V domains shown)
VH: B15 VH with A97T
VL: B15 VL with V58I, T69I
notes: humanized
B26: Hu89C10H8-8 (antibody, V domains shown)
VH: B15 VH with V37I, N77S, A97T
VL: B15 VL with V58I
notes: humanized

Each binder was assayed against T1, human PD-L1-his tag protein (human, UniProt Q9NZQ7 19-238) (assay: SPR (Biacore), affinity ranking, PDL1-His).
T1 construct: also called human PD-L1-His protein; recombinant PD-L1 protein; not shown: his tag
T1 sequence (Q9NZQ7 19-238 limits assumed): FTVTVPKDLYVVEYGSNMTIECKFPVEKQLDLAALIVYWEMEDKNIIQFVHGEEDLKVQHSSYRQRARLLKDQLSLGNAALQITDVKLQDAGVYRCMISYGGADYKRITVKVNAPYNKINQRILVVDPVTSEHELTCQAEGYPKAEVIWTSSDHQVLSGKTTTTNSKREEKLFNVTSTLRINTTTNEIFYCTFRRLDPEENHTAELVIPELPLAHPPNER

| Kd [nM] | koff [s⁻¹] | kon [M⁻¹ s⁻¹] | Binder |
| --- | --- | --- | --- |
| 0.0356 | 9.84e-05 | 2.76e+06 | B1 |
| 0.0331 | 9.51e-05 | 2.88e+06 | B2 |
| 0.0371 | 9.69e-05 | 2.61e+06 | B3 |
| 0.0548 | 0.000103 | 1.88e+06 | B4 |
| 0.0392 | 9.34e-05 | 2.38e+06 | B5 |
| 0.0655 | 0.000121 | 1.86e+06 | B6 |
| 0.0587 | 0.000118 | 2.01e+06 | B7 |
| 0.0454 | 0.0001 | 2.21e+06 | B8 |
| 0.0519 | 0.000109 | 2.09e+06 | B9 |
| 0.0321 | 0.000164 | 5.11e+06 | B10 |
| 0.0351 | 9.01e-05 | 2.56e+06 | B11 |
| 0.037 | 0.000101 | 2.74e+06 | B12 |
| 0.0341 | 9.54e-05 | 2.8e+06 | B13 |
| 0.0754 | 0.000111 | 1.48e+06 | B14 |
| 0.617 | 0.000465 | 754000 | B15 |
| 0.122 | 8.56e-05 | 701000 | B16 |
| 0.137 | 9.75e-05 | 712000 | B17 |
| 0.713 | 0.000478 | 671000 | B18 |
| 0.736 | 0.000494 | 671000 | B19 |
| 0.133 | 8.51e-05 | 641000 | B20 |
| 0.098 | 6.54e-05 | 667000 | B21 |
| 0.0785 | 5.79e-05 | 738000 | B22 |
| 0.0918 | 7.17e-05 | 781000 | B23 |
| 0.561 | 0.000433 | 764000 | B24 |
| 0.151 | 8.99e-05 | 595000 | B25 |
| 0.102 | 6.66e-05 | 655000 | B26 |

These binders were tested against T2, human PD-L1-Fc protein (human, UniProt Q9NZQ7 19-238) (assay: ELISA, antibody titrated on coated human PD-L1-Fc, OD 450nm; upper left panel).
T2 construct: coating antigen of the ELISAs; also called rhPD-L1-Fc; not shown: Fc
T2 sequence (Q9NZQ7 19-238 limits assumed): as above
Experimental: (§1) To evaluate antigen binding activity, the humanized antibodies were subjected to ELISA test. Briefly, microtiter plates were coated with human PD-L1-Fc protein at 0.5 μg/ml in PBS, 100 μl/well at 4° C. overnight, then blocked with 200 μl/well of 1% BSA. Three-fold dilutions of humanized antibodies starting from 10 μg/ml were added to each well and incubated for 1 hour at 37° C. The plates were washed with PBS/Tween and then incubated with mouse-anti-human IgG Fab antibody conjugated with Horse Radish Peroxidase (HRP) for 1 hour at 37° C. After washing, the plates were developed with TMB substrate and analyzed by spectrophotometer at OD 450 nm.

| EC50 [ng/mL] | Binder |
| --- | --- |
| 10.6 | B4 |
| 12.5 | B6 |
| 11.8 | B7 |
| 6.22 | B15 |
| 6.51 | B16 |
| 6.37 | B19 |
| 7.28 | B20 |
| 6.66 | B22 |

The binders below were run against T2, human PD-L1-Fc protein (assay: ELISA, antibody titrated on coated human PD-L1-Fc, OD 450nm; lower left panel).
Experimental: as §1

| EC50 [ng/mL] | Binder |
| --- | --- |
| 9.83 | B17 |
| 7.57 | B21 |
| 8.8 | B23 |
| 9.94 | B24 |

These binders were tested against T2, human PD-L1-Fc protein (assay: ELISA, antibody titrated on coated human PD-L1-Fc, OD 450nm; upper right panel).
Experimental: as §1

| EC50 [ng/mL] | Binder |
| --- | --- |
| 12.5 | B1 |
| 10.1 | B5 |
| 8.45 | B8 |
| 8.25 | B10 |
| 9.53 | B11 |
| 8.42 | B18 |
| 7.82 | B25 |
| 7.41 | B26 |

These binders were tested against T2, human PD-L1-Fc protein (assay: ELISA, antibody titrated on coated human PD-L1-Fc, OD 450nm; lower left panel; the table row is headed 'IC50' on the sheet although the curves rise).
Experimental: as §1

| EC50 [ng/mL] | Binder |
| --- | --- |
| 14 | B2 |
| 11.1 | B3 |
| 14.4 | B9 |
| 13.6 | B12 |
| 10.2 | B13 |
| 11.4 | B14 |

— patent US20230287125A1 (LEPU BIOPHARMA, published 2023)
